Reference: patent US8889408B2, “Factor taking part in transcription control” (Sony Corporation, priority 2002, dated 2014)

Key:
HDAC1 = biological target: T1, HDAC1 (Homo sapiens, UniProt Q13547); test: Immunoprecipitation of GFP-HDART with Flag-HDAC in 293 cells; type: binding; conditions: co-transfected 293 cells; anti-FLAG immunoprecipitation
T1 construct: made in house
Description: (§1) Flag-HDACs expression vectors capable of expressing different types of HDAC (1, 3, 4 or 6) and a GFP-HDART expression vector were, respectively, co-transfected with 293 cells in the same manner as in Example 2, and cell extracts were prepared 24 hours after the transfection. The respective cell extracts were incubated with an anti-Flag antibody, followed by immunoprecipitation. The resulting immunoprecipitate was isolated with SDS-PAGE and an isolated pattern was transferred to a membrane, followed by immunoblotting with use of an anti-Flag antibody or […]. For reference, in order to confirm the expression of GFP-HDART protein in the respective cells, individual samples prior to the immunoprecipitation were similarly developed with SDS-PAGE to conduct immunoblotting with use of an anti-GFP antibody. […] The kinds of HDAC's from the left side of the figure are as follows: lane 1, HDAC1; lane 3, HDAC3; lane 4, HDAC4; and lane 5, HDAC6. It will be noted that lane 2 is for the sample in which GFP-HDART alone was expressed.

HDAC6 = biological target: T2, HDAC6 (Homo sapiens, UniProt Q9UBN7); test: as above; type: binding; conditions: co-transfected 293 cells; anti-FLAG immunoprecipitation
T2 construct: expressed in transfected cells; host or cells: 293 cells
T2 sequence (Q9UBN7 1-1215): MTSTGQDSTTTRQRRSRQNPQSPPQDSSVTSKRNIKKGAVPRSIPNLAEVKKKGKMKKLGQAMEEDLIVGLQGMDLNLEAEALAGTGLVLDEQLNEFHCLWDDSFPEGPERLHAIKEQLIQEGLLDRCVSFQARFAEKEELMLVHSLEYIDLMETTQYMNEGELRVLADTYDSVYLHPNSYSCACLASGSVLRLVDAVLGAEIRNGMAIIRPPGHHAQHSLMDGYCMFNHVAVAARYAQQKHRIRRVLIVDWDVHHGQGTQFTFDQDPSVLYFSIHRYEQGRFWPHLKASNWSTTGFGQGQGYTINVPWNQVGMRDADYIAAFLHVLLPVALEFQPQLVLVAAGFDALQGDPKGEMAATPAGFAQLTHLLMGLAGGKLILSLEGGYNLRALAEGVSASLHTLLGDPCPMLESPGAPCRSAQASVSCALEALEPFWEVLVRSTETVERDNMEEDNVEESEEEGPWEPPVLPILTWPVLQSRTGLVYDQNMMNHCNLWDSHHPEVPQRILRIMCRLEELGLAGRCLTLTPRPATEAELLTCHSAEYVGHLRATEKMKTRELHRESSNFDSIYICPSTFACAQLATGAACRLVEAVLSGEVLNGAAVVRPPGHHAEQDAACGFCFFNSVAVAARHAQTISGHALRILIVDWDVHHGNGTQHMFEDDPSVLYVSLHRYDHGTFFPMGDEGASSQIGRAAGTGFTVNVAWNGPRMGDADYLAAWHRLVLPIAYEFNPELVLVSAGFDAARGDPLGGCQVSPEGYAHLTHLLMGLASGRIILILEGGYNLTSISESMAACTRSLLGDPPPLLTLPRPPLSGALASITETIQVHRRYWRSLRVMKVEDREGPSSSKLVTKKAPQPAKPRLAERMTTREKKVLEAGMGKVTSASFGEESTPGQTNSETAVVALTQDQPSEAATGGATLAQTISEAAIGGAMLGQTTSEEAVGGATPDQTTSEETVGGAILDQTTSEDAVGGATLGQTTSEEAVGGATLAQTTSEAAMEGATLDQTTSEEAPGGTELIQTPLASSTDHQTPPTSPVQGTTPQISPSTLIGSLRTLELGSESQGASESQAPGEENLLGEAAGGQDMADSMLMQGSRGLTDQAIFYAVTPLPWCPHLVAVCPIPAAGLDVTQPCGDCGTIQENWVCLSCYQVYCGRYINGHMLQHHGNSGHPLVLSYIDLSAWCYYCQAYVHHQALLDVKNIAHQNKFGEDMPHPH
Description: as §1

HDAC3 = HDAC3 (Homo sapiens, UniProt O15379); test: as above; type: binding; set-up: expressed in transfected cells; host or cells: 293 cells; conditions: co-transfected 293 cells; anti-FLAG immunoprecipitation
Description: as §1

retinoic acid receptor = test: RAR reporter CAT analysis in HepG2 cells; type: cell-based; conditions: pcDNA3-HDART 0, 0.5, 1.0 μg; ATRA 10^−8 M; HepG2 cells
Description: Since it is shown in the above example that HDART is able to interact with Skip, the functional role of HDART on the transcription route ascribed to a nuclear receptor was analyzed. First, the effect of HDART on the transcription regulation by retinoic acid receptor was analyzed. For this purpose, the CAT analysis was made using a RAR (retinoid acid receptor) reporter plasmid incorporating a thymidine kinase minimum promoter (pTREpal-tata) and CAT gene therein downstream of a retinoid response element.
More particularly, pcDNA3-HDART, capable of steadily expressing HDART, and, at the same time, RAR reporter plasmid, were transfected into HepG2 cells by use of Effectene kit (QIAGEN™). It is to be noted that the pcDNA3-HDART expression vector was introduced in different amounts of 0, 0.5 and 1.0 μg, and the amount of DNA in the respective transfections was equalized at 1 μg by adding the appropriate amount of a vacant vector of pcDNA. After the transfection, growth was made in the presence (10^−8 M) or absence of ATRA and the CAT activity was measured. The results of the measurement (FIG. 6) are indicated in terms of values corrected on the basis of the CAT activity obtained after introduction of 1.0 μg of a vacant vector in the absence of ATRA. In addition, the average of the results of three experiments and a standard deviation in terms of an error bar are also shown.
Next, the influence of the overexpression of N4TPR on the transcription from RAR or a glucocorticoid responsive promoter was checked. It will be noted that this test was made in the same manner as in the reporter analysis set out in Example 4, but using GFP-N4TPR expression vector (0, 0.3 and 0.5 μg).

HDAC3, sequence (O15379 whole entry, species assumed): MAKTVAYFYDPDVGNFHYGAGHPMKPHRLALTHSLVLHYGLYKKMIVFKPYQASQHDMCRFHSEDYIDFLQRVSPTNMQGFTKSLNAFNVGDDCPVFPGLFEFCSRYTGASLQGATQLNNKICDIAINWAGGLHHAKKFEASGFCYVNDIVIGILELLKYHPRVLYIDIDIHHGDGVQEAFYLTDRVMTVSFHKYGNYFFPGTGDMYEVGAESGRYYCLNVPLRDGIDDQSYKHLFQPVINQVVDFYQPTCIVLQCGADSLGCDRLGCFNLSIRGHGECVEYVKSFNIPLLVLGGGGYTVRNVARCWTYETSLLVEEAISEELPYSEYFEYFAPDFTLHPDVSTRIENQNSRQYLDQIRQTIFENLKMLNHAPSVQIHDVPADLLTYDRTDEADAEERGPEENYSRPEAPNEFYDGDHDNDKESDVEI
T1 sequence (Q13547 whole entry, species assumed): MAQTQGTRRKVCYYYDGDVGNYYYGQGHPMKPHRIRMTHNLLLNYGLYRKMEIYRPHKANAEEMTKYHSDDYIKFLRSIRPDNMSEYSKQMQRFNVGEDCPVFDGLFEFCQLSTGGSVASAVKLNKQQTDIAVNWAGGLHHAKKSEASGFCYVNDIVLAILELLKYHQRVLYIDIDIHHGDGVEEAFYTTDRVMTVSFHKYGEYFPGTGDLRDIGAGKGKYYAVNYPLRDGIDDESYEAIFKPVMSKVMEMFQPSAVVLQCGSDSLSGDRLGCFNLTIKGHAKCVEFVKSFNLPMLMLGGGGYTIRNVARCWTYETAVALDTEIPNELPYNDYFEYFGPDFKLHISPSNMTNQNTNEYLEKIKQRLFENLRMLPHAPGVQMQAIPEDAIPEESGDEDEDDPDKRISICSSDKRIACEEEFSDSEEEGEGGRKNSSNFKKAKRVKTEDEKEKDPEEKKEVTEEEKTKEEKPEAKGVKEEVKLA

- interaction with HDAC1 (HDAC1): exhibits interaction
- interaction with HDAC6 (HDAC6): exhibits interaction
- interaction with HDAC3 (HDAC3): exhibits interaction
B1: HDART: HDAC associated repressor TPR protein, 855 amino acids, SEQ ID NO: 2; transcription repressing factor, used as fusions or expressed from vector (protein, listed as Homo sapiens)
chain: MVVMARLSRPERPDLVFEEEDLPYEEEIMRNQFSVKCWLRYIEFKQGAPKPRLNQLYERALKLLPCSYKLWYRYLKARRAQVKHRCVTDPAYEDVNNCHERAFVFMHKMPRLWLDYCQFLMDQGRVTHTRRTFDRALRALPITQHSRIWPLYLRFLRSHPLPETAVRGYRRFLKLSPESAEEYIEYLKSSDRLDEAAQRLATVVNDERFVSKAGKSNYQLWHELCDLISQNPDKVQSLNVDAIIRGGLTRFTDQLGKLWCSLADYYIRSGHFEKARDVYEEAIRTVMTVRDFTQVFDSYAQFEESMIAAKMETASELGREEEDDVDLELRLARFEQLISRRPLLLNSVLLRQNPHHVHEWHKRVALHQGRPREIINTYTEAVQTVDPFKATGKPHTLWVAFAKFYEDNGQLDDARVILEKATKVNFKQVDDLASVWCQCGELELRHENYDEALRLLRKATALPARRAEYFDGSEPVQNRVYKSLKVWSMLADLEESLGTFQSTKAVYDRILDLRIATPQIVINYAMFLEEHKYFEESFKAYERGISLFKWPNVSDIWSTYLTKFIARYGGRKLERARDLFEQALDGCPPKYAKTLYLLYAQLEEEWGLARHAMAVYERATRAVEPAQQYDMFNIYIKRAAEIYGVTHTRGIYQKAIEVLSDEHAREMCLRFADMECKLGEIDRARAIYSFCSQICDPRTTGAFWQTWKDFEVRHGNEDTIKEMLRIRRSVQATYNTQVNFMASQMLKVSGSATGTVSDLAPGQSGMDDMKLLEQRAEQLAAEAERDQPLRAQSKILFVRSDASREELAELAQQVNPEEIQLGEDEDEDEMDLEPNEVRLEQQSVPAAVFGSLKED
- ATRA-induced CAT activity (retinoic acid receptor): inhibited by HDART in a concentration dependent manner
